Target: factor Xa
Assay: cell-based or functional assay

Substance: Tissue Factor Pathway Inhibitor (TFPI), yeast-produced, authentic mature 276 amino acid polypeptide (from UniProt P10646 29-304)
- factor Xa amidolytic assay, 50% inhibitory concentration: 20 ng/mL
